Paper PMC6289052

Columns and labels:
[1] = system: TCF4 DBD (mouse); experiment: PBM; details: not given in the material (PBM protein binding as described previously)
[2] = system: USF1 DBD (mouse); experiment: PBM; details: not given in the material (PBM protein binding as described previously)

Substance	binding signal [1]	binding signal [2]
CAGGTGGT, cytosine	52 Z-score	–
GTCACGTG, cytosine	–	87 Z-score
